In assay [1] the target is 2A1 IgA of the combination HCα1-LCλ-JC (heavy chain α1 without KDEL, λ light chain, co-expressed J chain) (human) (UniProt P01591). The assay is described as follows: SEC.
For assay [2] the target is unchanged. The assay is described as follows: ELISA.
Assay [3] shares this target. The assay is described as follows: ELISA; […]) capture antibody, […].

Sequence of UniProt P01591 (P01591 whole entry, looked up): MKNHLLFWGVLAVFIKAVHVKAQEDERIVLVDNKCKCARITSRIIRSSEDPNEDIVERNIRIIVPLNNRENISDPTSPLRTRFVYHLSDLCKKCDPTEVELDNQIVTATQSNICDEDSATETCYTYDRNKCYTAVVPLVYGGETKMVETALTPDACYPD

Take “secretory component with a C-terminal KDEL signal (SCkdel) (from UniProt P01833 19-638) (domain or fragment)”: the percent of total IgA content as sIgA in assay [1] amounted to 20%. Further, the percent of total HC in the sIgA complex in assay [2] is 21%; in assay [3], over 33%.

For the origin of these results see paper PMC3634489.
